The source of these data is the supplement of paper PMC10724198.

± gives the standard deviation of the averaged measurements.
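Note: PSI is a weighted mean of sequencing reads over stability bins, variants kept only with over 10 reads, mCherry proximal and sfGFP distal, peptide attached via GGGS linker.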

In the data set the test system is Saccharomyces cerevisiae. Description: protein stability index of tFT-peptide fusion (C-terminal peptide) (PSI (0-1 scale)); higher = more stable (slower turnover). To be noted: genetic background: wild type; temperature: 30 C.
Regarding KQMRIEYKTRNI, the protein stability index amounted to 0.604 ± 0.015.
The result for KQRQTKTIRGPR reads 0.672 ± 0.059; that for KQWCFLKWGVNV, 0.558 ± 0.058; that for KREKENIAKSSV, 0.718 ± 0.078.
Under KREMCHRYTRRS stands 0.67 ± 0.097; under KRFQDRPRPGAH, 0.687 ± 0.044; under KRGYLRTNPLSY, 0.7056 ± 0.0061.
The result for KRHCDRVLKMWH reads 0.641 ± 0.11; that for KRKEEKKPLINE, 0.734 ± 0.072; that for KRKEKAKRTKHV, 0.641 ± 0.035.
For KRKKKKKRRTKK, the protein stability index amounted to 0.6442 ± 0.0045.
The result for KRKKKRRKETLY reads 0.641 ± 0.037.
For the sequence KRKKQGNKKQEE, the protein stability index amounted to 0.6893 ± 0.0017.
The result for KRKRQKNIRNER reads 0.704 ± 0.12; that for KRKTKIEQDQRQ, 0.6704 ± 0.0056.
KRREEKKRKRVE yielded a protein stability index of 0.648 ± 0.094.
Sequence KRRQGRGAKGGE returned a protein stability index of 0.629 ± 0.045.
Regarding KRRSHRQHSRRR, the protein stability index was found to be 0.559 ± 0.032.
In the case of KRSARRAGRATP, the protein stability index was 0.761 ± 0.14.
Regarding KRVTYKRIRSKI, the protein stability index is 0.799 ± 0.029.
Under KSAGLKPNWSTT stands 0.696 ± 0.065; under KSDSDNCQALTY, 0.679 ± 0.067.
In turn, KSLRLFSVLSFV came in with a protein stability index of 0.627 ± 0.016.
Under KSVAKLGHGGSP stands 0.677 ± 0.064.
In turn, KSVSVDGYNKED showed a protein stability index of 0.646 ± 0.01.
KSYRVGKMAAQR yielded a protein stability index of 0.683 ± 0.012.
In turn, KTAKSEEPILYR had a protein stability index of 0.753 ± 0.0083.
Sequence KTEKTKIKKKRM yielded a protein stability index of 0.684 ± 0.0075.
The result for KTFPPVTLDFSS reads 0.609 ± 0.013; that for KTINKEQKKKEM, 0.7 ± 0.036; that for KTKERARTISRV, 0.721 ± 0.024.
Sequence KTKKPIILDTSN had a protein stability index of 0.6406 ± 0.0047.
Consider KTKKYIQKNKKR, for which the protein stability index was determined as 0.773 ± 0.012.
Take KTNNQVDTSVKD: the protein stability index amounted to 0.645 ± 0.054.
As for KTNNYPDNNPPG, the protein stability index amounted to 0.611 ± 0.016.
As for KTRHMQGNRVDS, the protein stability index turned out to be 0.603 ± 0.045.
The sequence KTRPVCKVSCKL yielded a protein stability index of 0.77 ± 0.092.
Turning to KTRRHDQKMEKI, the protein stability index was determined as 0.659 ± 0.026.
The sequence KTSQYKPREKID displayed a protein stability index of 0.736 ± 0.04.
Sequence KTTETVLRKRTK gave a protein stability index of 0.737 ± 0.049.
KTTKEKESQEKN gave a protein stability index of 0.723 ± 0.029.
With KTYKNKTQQNAS, the protein stability index was 0.746 ± 0.045.
KVGWGMRGVRGG had a protein stability index of 0.66 ± 0.015.
The sequence KVHVILTGKYEI registered a protein stability index of 0.7012 ± 0.0025.
The sequence KVREGEARKEST gave a protein stability index of 0.6826 ± 0.0017.
Consider KVSKHIKTNDSI, for which the protein stability index was determined as 0.65 ± 0.02.
Consider KWCQSNNIVKRT, for which the protein stability index stood at 0.7 ± 0.011.
In turn, KYFCSLAFFLFA displayed a protein stability index of 0.502 ± 0.0073.
For KYINSASLIVYY, the protein stability index amounted to 0.693 ± 0.06.
Under LAAGPSERTART stands 0.685 ± 0.052; under LACMWICPHIQA, 0.606 ± 0.023; under LADLLRCSYSLS, 0.677 ± 0.046.
As for LAGRARLVMCPR, the protein stability index came out at 0.639 ± 0.0068.
Regarding LAGVSTPLPPPP, the protein stability index amounted to 0.696 ± 0.029.
Sequence LAHAGSRPPTPG yielded a protein stability index of 0.6754 ± 0.0016.
The result for LALHPPPRVPPT reads 0.701 ± 0.036; that for LANVGLDVSRIS, 0.696 ± 0.012.
For LAPPLILLPFVD, the protein stability index amounted to 0.699 ± 0.033.
Turning to LAPPPAAPRFCL, the protein stability index amounted to 0.652 ± 0.008.
Under LAPPYPSSASSH stands 0.688 ± 0.022; under LAQLPPSLRFPP, 0.72 ± 0.1.
As for LARLPPPSLSRV, the protein stability index was 0.713 ± 0.055.
Sequence LASTMTIMLPGC displayed a protein stability index of 0.703 ± 0.15.
Sequence LASVLRESRIST returned a protein stability index of 0.671 ± 0.0078.
Sequence LATDVGHRLLGI registered a protein stability index of 0.707 ± 0.042.
Under LAVWSVVGGGVV stands 0.637 ± 0.008.
With LAWLGLHERTLF, the protein stability index was 0.685 ± 0.0077.
The result for LAYIFTPVRTTG reads 0.799 ± 0.26; that for LCCLSSLAMLFF, 0.7 ± 0.12.
Regarding LCLIGQPQTRVS, the protein stability index was 0.695 ± 0.17.
Under LCLTLPSDSSAP stands 0.841 ± 0.073; under LCRRGGRSACGS, 0.7019 ± 0.0067; under LCSGRGGRVCGG, 0.669 ± 0.038.
The result for LCVRFFGVKWAF reads 0.594 ± 0.0095; that for LCWQALSLGVMC, 0.526 ± 0.023; that for LDAFYVNVGLFG, 0.732 ± 0.045.
For the sequence LDGLLVCSNWPA, the protein stability index came to 0.805 ± 0.07.
In turn, LDHFGASYCPRG showed a protein stability index of 0.706 ± 0.027.
Regarding LDPGPLVRTPRL, the protein stability index is 0.692 ± 0.076.
On to LDPHPFRGHACC, for which the protein stability index stood at 0.779 ± 0.3.
